T1: extracellular domain of human IL23R (hIL23R ECD) (human, UniProt Q5VWK5 24-355)
T1 construct: The immunogen was an ECD-human IgG1 hinge-Fc fusion
T1 sequence: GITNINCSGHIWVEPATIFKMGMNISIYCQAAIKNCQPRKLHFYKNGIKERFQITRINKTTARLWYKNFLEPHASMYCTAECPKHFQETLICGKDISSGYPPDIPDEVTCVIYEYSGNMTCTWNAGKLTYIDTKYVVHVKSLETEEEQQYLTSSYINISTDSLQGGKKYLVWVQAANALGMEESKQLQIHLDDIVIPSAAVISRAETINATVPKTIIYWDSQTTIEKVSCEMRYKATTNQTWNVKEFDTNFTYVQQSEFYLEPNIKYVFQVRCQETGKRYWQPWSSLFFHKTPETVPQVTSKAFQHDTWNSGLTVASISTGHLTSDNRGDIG

B1: hIL23R_VHH15 (VHH)
VHH: QVQLQESGGGSVQAGGSLRLSCAASPGTYTSRYMGWFRQAPGKEREGVATIWPAGGNTVYADSVKGRFTISQDGAKKTVYLQMNSLKPEDTAMYYCAAAKYGGTSLAPYTYNYWGQGTQVTVSS
notes: Phagemid clone with his-tag, periplasmic extract
B2: hIL23R_VHH14 (VHH)
VHH: QVQLQESGGGLVQPGGSLRLSCAASGYTYCSYDMKWYRQAPGKKREFVSAIDSDGSTSYADSVKGRFTISQDNAKNTVYLQMNSLKPEDTAMYYCKTEGTVPVGVCPNYWGQGTQVTVSS
notes: as for B1
B3: hIL23R_VHH17 (VHH)
VHH: QVQLQESGGGSVQAGGSLRLSCTASGYTFSTMKYMGWFRQAPGKEREGVAAIWIAAGNTYYADSVKGRFTISQDNTKNTVYLQMNSLKPEDTALYYCAAARYGFVPSTWYLPERYNYWGQGTQVTVSS
notes: as for B1
B4: hIL23R_VHH19 (VHH)
VHH: QVQLQESGGGSVQAGGSLRLSCAASGYTSCSYDMSWYRQAPGKKREFVSAIHSDGTTSYADSMKGRFTISQDNAKNTVYLQMNSLKPEDTAMYYCKTDPNYSDHVCPPYWGRGTQVTVSS
notes: as for B1
B5: hIL23R_VHH12 (VHH)
VHH: QVQLQESGGGSVQAGGSLRLSCAASGYTSSSRCMGWFRQAPGKEREGVARIYTPTRTTWYADSVKGRFTISQDNAKNTVYLEMASLKPEDTAKYFCAAGASCAVDLFSYWGQGTQVTVSS
notes: as for B1

Molecular target: T1, extracellular domain of human IL23R …
Experiment: periplasmic extract ELISA (PE-ELISA) of phage clones, colorimetric
Outline: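 VHH domains were obtained from camels immunized sequentially with human and mouse receptor extracellular domain–Fc fusion proteins, then cloned with a his-tag into a phagemid in E. coli. The phage library was panned over several rounds on the human or mouse extracellular domain, and single clones were checked for selective binding by colorimetric periplasmic extract ELISA.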

Row | Binder | binding result
1 | B1 | binds
2 | B2 | binds
3 | B3 | binds
4 | B4 | binds
5 | B5 | binds
